According to IntAct's records for PubMed 16923827:

B1: Spindle pole body assembly component MPS3 (Saccharomyces cerevisiae), P47069 (parent)
chain: MNNSNEHRREEAGAANEQMPYNKAVKSAYADVLKDKMNREQEISLRAIKKGIYTDGGETDNYDMDKENDSAYEMFKKNLDFPLDQHNDDDDDDPYIEDNGQETDGYSDEDYTDEADKSFIEDSDSDSYDLESNSDFEENLESSGEAKKLKWRTYIFYGGLFFVFYFFGSFLMTTVKNNDLESHSSGATSSPGKSFSNLQKQVNHLYSELSKRDEKHSSELDKTVKIIVSQFEKNIKRLLPSNLVNFENDINSLTKQVETISTSMSELQRRNHKFTVENVTQWQDQLVKQLDTHLPQEIPVVINNSSSLLIIPELHNYLSALISDVIESPGIGTAGSAESRWEYDLNRYVKEILSNELQYIDKDYFIQEMNRRLQSNKQEIWEEITNRLETQQQQQQQQVQQDYSNVPQQYSSILMKRLIHQIYNSNQHQWEDDLDFATYVQGTKLLNHLTSPTWRQGSGVQPIELLTDSKQSSSTYWQCENEPGCSWAIRFKTPLYLTKISYMHGRFTNNLHIMNSAPRLISLYVKLSQTKEIKALQTLANQYGFGQHHKRDRNYIKIAKFEYRLTDSRIRQQMYLPPWFIQLKPLVRSIVFQVDENYGNKKFISLRKFIINGVTPQDLQIIENNEFPVLLGDTPEYGVTQNTDEGKRKVLLSKPPYASSSTSTKFHPASNVPSFGQDELDQ
partner: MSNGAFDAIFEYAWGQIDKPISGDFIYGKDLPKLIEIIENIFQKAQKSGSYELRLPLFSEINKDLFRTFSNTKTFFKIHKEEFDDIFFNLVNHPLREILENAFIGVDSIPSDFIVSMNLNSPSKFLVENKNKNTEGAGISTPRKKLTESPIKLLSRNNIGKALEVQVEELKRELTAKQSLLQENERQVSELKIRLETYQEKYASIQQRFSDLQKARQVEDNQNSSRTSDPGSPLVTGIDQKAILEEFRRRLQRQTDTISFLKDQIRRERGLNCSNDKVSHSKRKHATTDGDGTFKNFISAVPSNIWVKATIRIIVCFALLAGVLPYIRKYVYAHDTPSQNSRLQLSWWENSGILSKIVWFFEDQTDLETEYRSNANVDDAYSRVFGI

Variants of: B1
Conditions: with mps2_yeast MPS2, P53159

effect of a mutation on the interaction	Variant
decreasing interaction	W477A
decreasing interaction	Q572L;Q573L
decreasing interaction	W487A
